Data as given in a protein production outcome set (Wang et al. 2014).

Assay: label from the status in PepcDB records

| Sequence | protein production |
| --- | --- |
| METLILTQEEVESLISMDEAMNAVEEAFRLYALGKAQMPPKVYLEFEKGDLRAMPAHLMGYAGLKWVNSHPGNPDKGLPTVMALMILNSPETGFPLAVMDATYTTSLRTGAAGGIAAKYLARKNSSVFGFIGCGTQAYFQLEALRRVFDIGEVKAYDVREKAAKKFVSYCEDRGISASVQPAEEASRCDVLVTTTPSRKPVVKAEWVEEGTHINAIGADGPGKQELDVEILKKAKIVVDDLEQAKHGGEINVAVSKGVIGVEDVHATIGEVIAGLKDGRESDEEITIFDSTGLAIQDVAVAKVVYENALSKNVGSKIKFFRI | not failed |
| METLSVGHKIKTLRQSLGLSQRDLAEGICTQALISHIEKNKTTPTVDVFFNIAKKLGAPADYFLETHDNSLDYILEVQYQIRKQVQEHNYEEALNIIKTERKNPIFNNSKYLQFLLWHEAICEYSLNKRYNEAVEAIEEALKLTHKEGNSYSEREIEILISLANFHDSEKKYDLSTKIYQDINDSLKALSYLSDRKIQLRFLFNYSLNRNNVKRYKEAIDLCNKGIILCKQHGFLYSFGEFHYQKGQNLIDLGRKKEALKFLEKAKMIFDIQDNELFANIADKEIKKLQKSLEMTVS | failed |
| METRARYVLIGIFTLASILATLGFLLWLAKVQLDRTYAEYDILFTSVEGLGRASPVRYNGVDVGEVLNIAVDAEDPSLVRVRIQLAATTPVRTDTKAQVASQGVTGVSYVSLSGGAAPEPLTAEGDQWPPVIPSERSAVQALTADAPTLLAEAIALLKDIQTFTGPENRAAVESILTNADASVQNIAAITRDAAEATSRLNDFTARLDAMADRADVALASLETALEEGKGAAASARDTFEAVNRVVDRDVPPMIAQIRSAVSGIERSVAGIRNFADNGLPQYATLAAETRRTVTNLNSLIAQISRDPARFFLGSQTPSYRR | failed |
| METSKKLVIVAVLSITLILTYAYLISIIEGVDYFTALYFSVITITTTGYGDFTPKTFLGRTLTVVYLCVGVGIVMYLFSLIAEFIVEGKFEEFVRLKKMKNKIKTLKDHYIICGYGRLGKVVGEKFIEENIPFIAIDINEDVLKEEYEKYPDKFLYIVGDAKKEEVLKKAKIDKAKGLIATLPSDADNVFLTLTARELNPNILITAKADEKEAIRKLKIAGANRVVSPYLIGGLRMAEVSVRPGILDFLSTFIKIAKDEYEEDIELRKFVIEKDSELAYKSLKDANIRGKTGATILGIRREKEFCINPYPEFILKPGDVIYAFGTEENLKYLENLVKKKKKKL | failed |
| METVRPMVVAPKGNKLRRKFAKVLNIHKLTGVAPEGEMKKIKFDSKTAKLSESFYKLEEEYERSQGLEALLAKLFATVSSIKAAYAQLQHSQSPYDSIGIQKADNLVVAELKTLSELKQCFMKKQVDPNPERTLVLAEIQELRSLLKTYEIMGKKLESQYKLKDSEIIFLREKLDESMKQNKLTEKRLNQSGQLCNPLDNLHLSALNPTHFVTYLHHTVKSTRGFVKLMIEQMKLAGWDISSAANSIHPGVFYYKQDHKCFTFEHFVSNVMFEAFHLPYFSTSSESRSYKKKKQSNADREMFFERFKELRSMKAKDYLTARPKSRFARFCRAKYLQLIHPKMEQAFFGHLHLRNQVSAGEFPETSLFSGFLEMAKRIWLLHCLALSFEREAEIFRVPKGCRFSEVYMKSVAEEAFFPAAESSPESEPRVAFTVVPGFRIGKTSIQCEVYLSLS | failed |
| MEVKQGLTLFARKQDMKSVWEITGSNIDLVCIGNFCRSLKDLSSRGGTDASTNTCMLPWQYSLQKPLLGVSYLNSDGSSQSTPHGSNGLVKRGATYIVSDDLTICVKKKFDVNLDDIFEHEINIGKTHSLIRDIHCLDYGFRELSFRETTLKHQSHALCGAD | failed |
| MEVSHVTLEPNKDSRPAVLTIGKFDGVHLGHQTILNTALSIKKENEILTAISFSPHPLWALKQIEIYREMLTPRMEKERWLAHYGVDHLIETAFTPRYAETTPEEFVTDHLSNLQLSHIIVGSEFNFGKGRDSDVDLLRDLCKPYGIGVTSVPVIETNQTKISSTNIRAFIRRGHFLEAEQLLGHP | failed |
| MEWGISLQTKWSLSEYENPKRYDIENKSLSDFPFLLSWAQKLHIQNEWILDIACGTGRVTIPFIENGYQMIGVDIHEGMLAEAKKKTTDCKKVKWLQQDCLQLSMNEAIPFAFMVGHGFQHFLTNTDQNKLLTSIHHVLAENGIFIFDTRFPSKEELIQPSTEEYWTTISDEKGRECDLYTEMTYDLIQQIQHYITIRKFYDDDALVEELKTTIDLRYTYPQELERLLVANGFELLHIYNDWEGNELGEDCYSMVVVCRKK | failed |
| MEYLFLRRKRTTATSERQKTLLFKAAERQWKEEFAGKETDIRKVDCNIYKGILYQLEIRQVFLDTSLSLKKLSALLETNQTYLSNVVNKYFGCNLKELVNTYRVEYAKELLCSRRCALTELPCSCGFASKSAFYSAFSRIVGVSPLSYQTQERRRHHLQAVNLEHHHHHH | failed |
| MEYLIYSLIAVIILTVGLNNIFKKQSKYFYMLATLISVVVTSYEIFKIWTGFKLEGIIFVLERSFMKGFVSTALFILVMFAGALSKKWGITKKLLRVRAEMAILASILILPHFIIYTYKFLVRLFSGKPLSILYISFIIVGLIAFIIMIPLFITSFKKVRVTMSPSKWKMVQRWAYPFYFLVYVHIILILFNKKVFNLNAVIIYTVIFLGYFILRICNNKKAIK | failed |
| MEYNVQDMIFQFIGGLGIFLFGIKYMGDGLQQAAGDRLRDILDRFTTNPLMGVLAGMLVTVLIQSSSGTTALTVGLVSAGFMTLRQAIGVIMGANIGTTVTAFIIGIKIGEYALPVMAVGAILLFFFKNKKVHSVGQVVFGFGMLFFGLELMSAGMKPLRSLESFQELTVSMSDNPILGIVVGTVFTLIVQSSSATIGILQELFGQGAIDLQAALPVLFGDNIGTTITAVLAAIGTSIAARRAALVHVIFNIIGTIIFTILLIPFTSLIQYFQTSLNLNPEMTIAFAHGTFNVTNTIIQFPFIAVLAWIVTKIIRGEDAAIDFKPQHLNPIFIEQSPAIALTEAQKEIIRMAEFSLHGLKEANQFLNTQDKKHANMATQLEGAINNLDKKITEYLVLLSEKPLSPTDSEKHSVLAGVVGDIERVGDHVENLVELVDFQISNRVSLSDEALAELNEMLELTISTLQDSVEALTNFDTELAQTVIAKERKIDQMERVLRKRHVLRLNERSCSGDASIIFVDMVSNLERIGDHAVNIADGVLGEQGKINLKQSL | failed |
| MEYQLSQAGNKGKVLILKVTGIFFVALAILGVVLPILPTTPFLLVAAACFAKSSPTMQRKLLANKTFGPLIHDWQKYRSIPRKAKRIALLTMILSVCWSAFMLQSVMLTALVVALVIGPFIFLLRLPESK | failed |
| MFACMGVLVKLAAAFFSNTELVFYRSLVGVITTFLVMRAYGMPLVTEHWKSHCWRGLSGLGGVLLFFYCILQLPLATAISLNNTWPLFLAFLAMILLKEEFSWLLAGALVVGFIGVIFLLRPTLAEGQWYLALIGIGSGLFAGIAHFHVRQLSELGESDWLTVFYFTLVCTVATGLWLTFTAFSAVSLQSLTLALGIGVTATLAQLAISRAHRGSNILIVGVLSYSSVLFAGLMDLFFWDARLPVSAWVGMGLIILGGLLSIRGIPVRNSSIVTLDD | failed |
| MFAFPRLRFVLVGTQHPGNIGAAARAMKTMGISRLVLVAPECQLDEHAYRRSAGAEDVLEAASVHTVLADAVADCTFVLGCTARTRRVAFEELRPAAAASQILTNINAAGEVALLFGRERTGLTNEELQLCHVAVHIPADPLFSSLNLAAAVQILAYEIRLASLDAPSAPLHSTSGFRKTPASHAQLEGLFGQFKQTLDEIDFHKGRAPESAMRKLRRLFAKAELTQQEIRLLRGVLSDVQRIVMLKRQRDT | failed |
| MFAIRRRCRPRPGQFQHGWSGLPTHTVPQAGSIAPIGRVRPSSVGNVRPTPECNVLPSFGRSSTNPSFPMEPIEDLDVLAEDEVRQREADGEVDEDLDRVKHGYDATAGDKQVYIETYGCQMNVNDSGIVASVLEESGYGLTRDQAAADVVLLNTCAIRENAERKIRARLSMLRSEKEKRDGELMLGVLGCMAERLREKLLEQEDLVDVVVGPDAYRDLPQLLYEADATGQAAVNVELSKQETYEDIQPVRYDSNGVSAYVSIMRGCDNMCTFCVVPFTRGREESRPVTTILSEVARLAEEGYKEVTLLGQNVNSYHYTDADGTSVSFAELVDRVSRVSPEMRVRYSTSHPKDCTDDLLKVHRDRPNVCNYIHLPVQHGNTEVLDRMRRTYTREEYLALTERAKELCPGVSLSTDLIAGFCGETEAQHEDTLSLMEEVRYDHAYMFKYSERPQTYAARKYEDDVPEDTKQRRLEEIIELQNQHAKESNEAEVGRVHTVLVEGPSKKSDAQFFGRTDTNKGVVFDREDYEKGDYVRVRIEDCTSSTLLGTAIEKTTLEAAARTDSITTSPAVA | failed |
| MFAPQGLAQFIKVNVTLENGEPVFIYTDANGQVCQGDITVTQAGTITYLLNDQTLKGLKFVGVGFVTPFDGIIDAVTISSDGMLVQLVDLDKTPGTTKFQFVLSNTANTLLVLSPDPQIINRPQN | not failed |
| MFARTAIAPPFAAMAAGRIPNTHDSDMAEARPDSLTRSRAAKPAGEGAAFSPLYRQIKELLVQSLDRGEWKPGELIPSEIDLAARFQVSQGTVRKAVDELAAEHLLLRRQGKGTFVATHHEARVRYRFLRLAPDEEGEGGRAESRILECRRLRAPAEIARALELRAGETVVTIRRQLSMNHMPTVIDDLWLPGTHFRGLTLELLTASKAPLYGLFESEFGVSMVRADEKLRAVAASPEIAPLLGVEPGRPLLQVDRISYTYGDRPMEVRRGLYLTDHYHYRNSLN | failed |
| MFAYSARLFLRPLWSDDLGVLLDLLDTASSRSGLLDSPDNDVTRYLRDNAARLIHENDVTRPHSGIFLRDGKEPRLIGITALAGKEAHFFCWIAPAFRGQGFATEASRLMLHFADEALRLPSLTAAYDHADAAAEKLLTKLGFSE | failed |
| MFCTFFEKHHRKWDILLEKSTGVMEAMKVTSEEKEQLSTAIDRMNEGLDAFIQLYNESEIDEPLIQLDDDTAELMKQARDMYGQEKLNEKLNTIIKQILSISVSEEGEKELKSNRIFISWLRWPLFIRIGVIILCLILLFGQIIYILEPKQFTSVFEGIWWAVVTVSTVGYGDYVPHTPLGQAAGILLILSGASFVTAYFATLSAAAFSRQHRYIEGKVAYKGRDHIILIGWNEKTNRLLKDLQLGAPSKTVVLIDESLTEGPLIENVHFIRGHAADDGTLKRANITEAESVMITADQYKSETDADMLSVLTLLSVKGLNPLAYCIVEILTDRFVTNAERAGANQIIGTSEFISRAMLQHYQVKLRRLNSRTESS | failed |
| MFDFLTHDMLAVVWFFLWCVIWGVYFIADSFSLGAGLLTPFIAADKVQRIQIQSSVGPFWGGNEVWLILAAGGTFAAFPLVFSKMFTFLYLPMMLLLIGLIARGISVEYLHKDDNPRIQQFLMWGWFAGSLLVSLVLGVAFANFFKGLEIASGGVYKGTLPGLFGPYALISGVLFVLMSVTSGALWINVKTEGAVAAKAGDLAKKSALLVLIFALVYLAYSFAGVEGFATNYSSMPVLYLLPVLAVGGAVLSVFFAKKGRAFPAFCSNLLAFLFIVEGGLASIYPYMLKSSISPEYGIDIFEAASSHMTLSVMLGGALVFVPIVIIYQLWAYTLFREKITETEQVEY | failed |
| MFDNDRLLLRVLLFGLLGASLWVLAPFWSALFWAAVLAFASWPLMRMLTRLLGGRESLAAGLLTLGWIVLVALPLIWLGFGLADNVRSLMELLKNLQVEGLPPPPSWMAGVPLIGDRLIGWWDSIDQQGVAFFYVLKPYVGEVGNWLLARSAKIGGGILELVLSLILIFFFYRDGPRLESIVHRALERLIGNRAEHYRDLVAGTVQRVVNGVIGTAAAQALLAWIGFMIAGVPGAMLLGLLTFACSLLMVPPLVWGPATAWLFFKGDYGHGVFLGLWGFFIISGVDNILKPYLISRGGNLPLVVVLLGVFGGLLAFGFMGLFLGPILLAVAYNLLSDWIASTPRTPPGEGRGPDA | failed |
| MFDNLQRKFLNLIGIEIEEEDKPQESTKAKEENVKPKHETPKVVTIGKANQTEVTVYNLKLFDEVVKVCDALRENKIVVFNLEQVAEDHIQRIIDFVSGAVYVLDAKIHKVSKKIFVVVPRSIDLEVDEQLKEEFRTKGVFAWLK | failed |
